Measurements reported in the RNAGym collection of RNA variant scans (doi:10.7554/elife.80360).

B1: HDV Ribozyme (parent)
chain: GGCCGGCAUGGUCCCAGCCUCCUCGCUGGCGCCGGCUGGGCAACAUUCCGAGGGGACCGUCCCCUCGGUAAUGGCGAAUGGGACCCA

Variants of: B1
Experiment: self-cleavage, relative activity (ratio to wild type); higher = more cleavage; co-transcriptional

Point of comparison: A16C C64U, self-cleavage 1.02. Against it:
- A16C U65G — lower, 0.755
- A16C G82C — lower, 0.0755
- C15U G38C — lower, 0.17
- C15U G38U — lower, 0.259
- C15U G38A — lower, 0.188
- A16U C19G — lower, 0
- A16U C19U — lower, 0.122
- A16G U46G — lower, 0.554
- A16C A87U — lower, 0.615
- A16C A87C — lower, 0.671
- A16G C36U — lower, 0.655
- A16G C36G — lower, 0
- A16U C66A — lower, 0.831
- A16U C66G — higher, 1.26
- A16C C26G — lower, 0.731
- A16C A56C — lower, 0.639
- A16C A56U — lower, 0.997
- A16C A56G — lower, 0.776
- A16C G55U — lower, 0.425
- A16C G55C — lower, 1.01
- A16G C62A — lower, 0.877
- A16G C62G — lower, 0.369
- A16C G68A — lower, 0.649
- A16C G39U — lower, 0.244
- A16C G39C — lower, 0.0831
- A16C G39A — lower, 0.156
- A16C G38A — lower, 0.0504
- A16C G38U — lower, 0.287
- A16U A78U — lower, 0.332
- A16G C61G — lower, 0.962
- A16U G35U — lower, 0.208
- A16U G35A — lower, 0.342
- A16U C22A — lower, 0.604
- A16U A43C — lower, 0.32
- A16U A43G — lower, 0.453
- A16U C86A — higher, 1.03
- A16U C57G — higher, 1.22
- A16C G73U — lower, 0.128
- A16C G73A — lower, 0.504
- A16C G73C — lower, 0.217
- A16G A43U — lower, 0.623
- C15U U69A — higher, 1.15
- A16C U79G — lower, 0.692
- A16U A71G — lower, 0.782
- A16U A71U — lower, 0.877
- C15U G53U — lower, 0.767
- A16C C33G — lower, 0.227
- A16C C33U — lower, 0.688
- A16C C33A — lower, 0.208
- A16G G68U — lower, 1.01
- A16G G68A — lower, 0.928
- A16G G68C — higher, 1.06
- A16C U46C — lower, 0.511
- A16C U46G — lower, 0.332
- A16C U46A — lower, 0.262
- A16C A71C — lower, 0.492
- C15U G50C — lower, 0.831
- C15U G50U — lower, 0.991
- C15U U23C — higher, 1.11
- C15U U23G — lower, 0.415
- C15U U23A — lower, 0.831
- C15U G31A — lower, 0.302
- A16G C33A — lower, 0.268
- A16G C33G — lower, 0.19
- A16U A45G — lower, 0.982
- A16C C66U — lower, 0.982
- A16C C66A — lower, 0.718
- A16C G34C — lower, 0.104
- C15U G74A — lower, 0.383
- C15U G74C — lower, 0.185
- C15U G74U — lower, 0.485
- A16U C84U — lower, 0.678
- A16U C84G — higher, 1.09
- A16G G39A — lower, 0.404
- C15U U27A — lower, 0.63
- C15U U27G — lower, 0.511
- A16G G31U — lower, 0.375
- A16C G54U — lower, 0.789
- A16C G54C — lower, 0.87
- A16C G54A — lower, 0.866
- A16G C85G — lower, 0.965
- A16G C85U — lower, 0.969
- A16C C30U — lower, 0.449
- A16U C61G — lower, 0.712
- A16U C61U — higher, 1.04
- A16C C19G — lower, 0.0594
- A16C C19A — lower, 0.277
- C15U G81C — lower, 0.317
- A16G G35U — lower, 0.375
- A16G G35C — lower, 0.138
- A16G U27G — lower, 0.594
- A16G U27C — lower, 0.675
- C15U U79G — lower, 0.703
- A16U C41U — lower, 0.997
- A16G G54U — lower, 0.72
- A16U C48G — higher, 1.2
- C15U U72C — lower, 0.598
- A16C C63U — lower, 0.895
- A16U G39C — lower, 0.185
- A16U G29A — lower, 0.0378
- A16U G29C — lower, 0.104
- A16U G29U — lower, 0.113
- A16G C48G — lower, 0.914
- A16G C48U — higher, 1.42
- A16G C48A — lower, 0.802
- C15U G17A — lower, 0.604
- C15U G17C — lower, 0.0978
- A16C U27A — lower, 0.684
- A16U A51G — higher, 1.04
- A16U A42U — lower, 0.465
- A16G U23A — higher, 1.11
- A16G U23C — higher, 1.14
- A16G U23G — higher, 1.16
- A16G C49U — higher, 1.23
- A16G C49G — lower, 0.875
- A16G U79C — higher, 1.08
- A16G U79G — lower, 0.598
- A16G U79A — lower, 0.997
- A16C G25A — lower, 0.0405
- A16C G25U — lower, 0
- A16C C86G — lower, 0.653
- A16C C86U — lower, 0.739
- A16U G38C — lower, 0
- A16G A51U — lower, 0.906
- A16G A51G — lower, 0.703
- A16G C41G — lower, 0.623
- C15U G35U — lower, 0.252
- A16U C49G — lower, 0.91
- A16U C49A — lower, 0.895
- A16U C49U — lower, 0.918
- A16C G29A — lower, 0.116
- A16G C63U — lower, 0.997
- A16C A43U — lower, 0.0831
- A16C G28C — lower, 0.119
- A16C G28A — lower, 0.0449
- A16C C61G — lower, 0.7
- A16C C61A — lower, 0.332
- A16G G29C — lower, 0
- C15U U47A — higher, 1.23
- A16C C18A — lower, 0.0665
- A16G U69A — lower, 0.985
- A16G U69G — lower, 0.962
- A16G G40A — higher, 1.13
- A16G G40U — lower, 0.719
- A16C G31U — lower, 0
- A16G A83U — lower, 0.415
- A16G G55C — higher, 1.2
- A16G G55U — lower, 0.914
- C15U G28U — lower, 0.227
- C15U G28C — lower, 0.0405
- A16C A51G — lower, 0.475
- A16C A51C — lower, 0.612
- A16G G28C — lower, 0.115
- A16G C18U — lower, 0.554
- A16G C18A — lower, 0.161
- A16U C21G — lower, 0.0665
- A16U C21A — lower, 0.185
- A16C C85U — lower, 0.795
- A16C C85G — lower, 0.95
- A16C C85A — lower, 0.875
- C15U G40A — lower, 0.972
- C15U G40C — lower, 0.249
- C15U G40U — lower, 0.791
- A16C G17C — lower, 0.266
- A16C G17U — lower, 0.332
- A16C U23A — lower, 0.89
